Measurements from patent publication US20220411523A1.

Assays:
[1] = target: Human 4-1BB + Mouse 4-1BB domain1,2A,2B(aa24-86) (human; mouse); assay: FACS, transiently transfected Expi293 cells (cell A)
[2] = target: human 4-1BB full length, on the cell surface (human) (UniProt Q07011); assay: FACS, transiently transfected Expi293 cells (WT)
[3] = target: Human 4-1BB + Mouse 4-1BB domain4A,4B,NF(aa119-186) (human; mouse); assay: FACS, transiently transfected Expi293 cells (cell E)
[4] = target: Human 4-1BB + Mouse 4-1BB domain2B,3A,3B(aa64-118) (human; mouse) (UniProt Q07011); assay: FACS, transiently transfected Expi293 cells (cell B)
Sequence of Human 4-1BB + Mouse 4-1BB domain2B,3A,3B(aa64-118) (human; mouse) (Q07011 other isoform, or with tags, fused parts or gaps): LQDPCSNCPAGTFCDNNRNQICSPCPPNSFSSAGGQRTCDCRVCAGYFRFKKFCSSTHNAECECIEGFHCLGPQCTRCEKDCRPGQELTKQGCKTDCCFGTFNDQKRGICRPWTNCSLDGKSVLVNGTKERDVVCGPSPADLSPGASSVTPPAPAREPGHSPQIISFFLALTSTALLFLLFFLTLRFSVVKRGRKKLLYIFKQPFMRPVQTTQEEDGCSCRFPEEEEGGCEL

[5] = target: Human 4-1BB + Mouse 4-1BB domain1,4B,NF(aa24-46,aa139-186) (human; mouse); assay: FACS, transiently transfected Expi293 cells (cell F)
Sequence of Human 4-1BB + Mouse 4-1BB domain1,4B,NF(aa24-46,aa139-186) (human; mouse) (chain, as listed by the source): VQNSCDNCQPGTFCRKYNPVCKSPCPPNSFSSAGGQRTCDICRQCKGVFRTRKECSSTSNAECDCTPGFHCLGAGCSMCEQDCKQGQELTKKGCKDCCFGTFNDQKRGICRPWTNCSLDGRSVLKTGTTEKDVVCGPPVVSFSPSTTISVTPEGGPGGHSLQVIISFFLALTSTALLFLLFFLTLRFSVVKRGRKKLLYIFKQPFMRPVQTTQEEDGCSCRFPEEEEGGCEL

[6] = target: Human 4-1BB + Mouse 4-1BB domain3B,4A,4B(aa97-159) (human; mouse) (UniProt Q07011); assay: FACS, transiently transfected Expi293 cells (cell D)
Sequence of Human 4-1BB + Mouse 4-1BB domain3B,4A,4B(aa97-159) (human; mouse) (Q07011 other isoform, or with tags, fused parts or gaps): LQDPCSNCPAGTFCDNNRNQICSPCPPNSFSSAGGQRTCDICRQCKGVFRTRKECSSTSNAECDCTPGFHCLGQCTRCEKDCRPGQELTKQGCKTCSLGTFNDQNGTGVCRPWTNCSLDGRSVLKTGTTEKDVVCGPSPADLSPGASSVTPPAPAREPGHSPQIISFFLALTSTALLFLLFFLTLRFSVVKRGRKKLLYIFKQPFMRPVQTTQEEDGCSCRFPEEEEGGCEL

[7] = target: Human 4-1BB + Mouse 4-1BB domain3A,3B,4A(aa87-133) (human; mouse) (UniProt Q07011); assay: FACS, transiently transfected Expi293 cells (cell C)
Sequence of Human 4-1BB + Mouse 4-1BB domain3A,3B,4A(aa87-133) (human; mouse) (Q07011 other isoform, or with tags, fused parts or gaps): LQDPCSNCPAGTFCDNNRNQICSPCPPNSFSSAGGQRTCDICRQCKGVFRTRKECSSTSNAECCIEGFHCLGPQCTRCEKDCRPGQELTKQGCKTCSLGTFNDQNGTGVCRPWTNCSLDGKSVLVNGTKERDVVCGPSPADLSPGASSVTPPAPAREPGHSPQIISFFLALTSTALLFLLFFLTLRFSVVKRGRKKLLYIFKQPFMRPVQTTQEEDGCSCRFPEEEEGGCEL

[8] = target: h4-1BB-His antigen (Acro company, product number: Q07011-1) (human) (UniProt Q07011); assay: BLI (Fortebio), h4-1BB-His
Sequence of h4-1BB-His antigen (Acro company, product number: Q07011-1) (human) (Q07011 24-186): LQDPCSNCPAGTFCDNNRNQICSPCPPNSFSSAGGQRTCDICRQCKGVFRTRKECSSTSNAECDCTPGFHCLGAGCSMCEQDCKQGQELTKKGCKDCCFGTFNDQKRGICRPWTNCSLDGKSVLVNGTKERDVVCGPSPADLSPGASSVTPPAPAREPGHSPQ

[9] = target: human 4-1BB full length, on the cell surface (human) (UniProt Q07011); assay: FACS competition, CHO-K1-hu4-1BB; labelled Bio-Hanke10F4 1.5 µg/ml fixed, competitor varied
[10] = target: human 4-1BB full length, on the cell surface (human) (UniProt Q07011); assay: FACS competition, CHO-K1-hu4-1BB; labelled Bio-4-1BBL 2 µg/ml fixed, competitor varied

Sequence of Urelumab (antibody) (VH): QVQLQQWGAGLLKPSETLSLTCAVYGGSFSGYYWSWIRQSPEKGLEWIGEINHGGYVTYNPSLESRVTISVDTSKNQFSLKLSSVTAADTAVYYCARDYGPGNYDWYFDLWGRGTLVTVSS
Sequence of Urelumab (antibody) (VL): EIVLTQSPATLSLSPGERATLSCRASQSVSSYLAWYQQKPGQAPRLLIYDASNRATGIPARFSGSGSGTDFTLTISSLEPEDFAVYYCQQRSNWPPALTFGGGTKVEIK
Sequence of human 4-1BBL-hIgG (Fc fusion) (chain, part): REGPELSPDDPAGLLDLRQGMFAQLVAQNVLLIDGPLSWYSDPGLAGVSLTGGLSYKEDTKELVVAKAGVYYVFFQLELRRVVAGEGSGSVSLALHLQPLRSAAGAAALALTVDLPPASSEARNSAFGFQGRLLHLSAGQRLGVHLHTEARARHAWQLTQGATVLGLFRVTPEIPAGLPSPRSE
Sequence of human 4-1BB full length, on the cell surface (human) (Q07011 24-255 limits assumed): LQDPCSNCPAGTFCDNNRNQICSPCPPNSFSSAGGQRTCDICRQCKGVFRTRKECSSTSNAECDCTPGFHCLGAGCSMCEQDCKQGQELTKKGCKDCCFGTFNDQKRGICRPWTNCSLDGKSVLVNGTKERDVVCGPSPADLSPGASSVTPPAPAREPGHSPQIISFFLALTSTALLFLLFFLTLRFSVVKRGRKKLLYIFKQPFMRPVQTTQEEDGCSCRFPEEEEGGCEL
Sequence of Human 4-1BB + Mouse 4-1BB domain1,2A,2B(aa24-86) (human; mouse) (chain, as listed by the source): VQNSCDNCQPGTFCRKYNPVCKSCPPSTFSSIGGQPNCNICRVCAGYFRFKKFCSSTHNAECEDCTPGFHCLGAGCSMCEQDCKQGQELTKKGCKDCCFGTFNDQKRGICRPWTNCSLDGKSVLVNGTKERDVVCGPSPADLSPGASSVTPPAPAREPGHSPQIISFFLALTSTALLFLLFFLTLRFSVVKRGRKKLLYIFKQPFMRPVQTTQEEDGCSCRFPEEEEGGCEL
Sequence of Human 4-1BB + Mouse 4-1BB domain4A,4B,NF(aa119-186) (human; mouse) (chain, as listed by the source): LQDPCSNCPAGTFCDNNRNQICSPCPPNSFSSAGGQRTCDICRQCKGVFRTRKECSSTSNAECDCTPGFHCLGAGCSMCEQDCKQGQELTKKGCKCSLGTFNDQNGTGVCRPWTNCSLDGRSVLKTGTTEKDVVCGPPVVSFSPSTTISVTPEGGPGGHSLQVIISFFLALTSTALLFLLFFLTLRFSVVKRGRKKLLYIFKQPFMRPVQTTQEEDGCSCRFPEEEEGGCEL

Mean fluorescence intensity [1]	Mean fluorescence intensity [2]	Mean fluorescence intensity [3]	Mean fluorescence intensity [4]	Mean fluorescence intensity [5]	Mean fluorescence intensity [6]	Mean fluorescence intensity [7]	Kd [8]	FACS signal of Bio-Hanke10F4 at (B:A) Ratio 0.058593 [9]	FACS signal of Bio-Hanke10F4 at (B:A) Ratio 0.23437 [9]	FACS signal of Bio-Hanke10F4 at (B:A) Ratio 0.9375 [9]	FACS signal of Bio-Hanke10F4 at (B:A) Ratio 3.75 [9]	FACS signal of Bio-Hanke10F4 at (B:A) Ratio 15 [9]	FACS signal of Bio-Hanke10F4 at (B:A) Ratio 60 [9]	FACS signal of Bio-4-1BBL at (B:A) Ratio 0.03906 [10]	FACS signal of Bio-4-1BBL at (B:A) Ratio 0.15625 [10]	FACS signal of Bio-4-1BBL at (B:A) Ratio 0.625 [10]	FACS signal of Bio-4-1BBL at (B:A) Ratio 2.5 [10]	FACS signal of Bio-4-1BBL at (B:A) Ratio 10 [10]	FACS signal of Bio-4-1BBL at (B:A) Ratio 40 [10]	Substance
1820	146000	194000	313000	4910	123000	193000	5.76 nM													Urelumab (antibody)
19000																				Utomilumab (antibody)
								6310	6580	4860	2290	584	254	7740	7910	6850	6320	3770	3220	human 4-1BBL-hIgG (Fc fusion)
